Laboratory results published in EP4480965A1, “TRANSFERRIN RECEPTOR-BINDING MOLECULES, CONJUGATES THEREOF AND THEIR USES TO PREVENT OR TREAT CNS DISEASES” (Vect-Horus, priority 2023, dated 2024).

Tested on: murine SOD1 mRNA
Assay: siRNA biodistribution and SOD1 mRNA by in situ hybridization (miRNAScope / RNAScope)
Type: in vivo, C57Bl/6 mice
Conditions: single ICV dose 100 µg, seven days
Experimental: For ISH bioanalysis, 20 µm sagittal cryosections of left brain hemispheres or coronal sections of spinal cords were prepared using a cryostat at -20°C (Leica), collected onto superfrost plus slides and stored at - 80°C until processing. For RNAScope® or miRNAScope® assays, slides containing cyosections were immediately transferred and fixed in 10% Neutral buffered formalin (NBF) for 1h30 at RT. Fluorescent RNAscope® assay for mRNAs detection or chromogenic miRNAscope® assay for siRNA detection were performed according to the manufacter's protocols (Advanced Cell Diagnostics, ACD). […] This distribution correlates with a broad and potent SOD1 mRNA knock-down, as assessed using RNAScope® (Figure 29B and 29E, right panels). […]
For ISH bioanalysis, 20 µm sagittal cryosections of left brain hemispheres or coronal sections of spinal cords were prepared using a cryostat at -20°C (Leica), collected onto superfrost plus slides and stored at - 80°C until processing. […] This distribution correlates with a broad TfR-dependent and potent SOD1 mRNA knock-down, as assessed using RNAScope® (Figure 31C and 31I, right panels).
An example of cleavable linker was evaluated and compared to the C5-hFc-siSOD1m-5'VP for its biodistribution in CNS tissues following systemic administration. […]

B1: C5-siSOD1m-5'VP: TfR-binding VHH-siRNA conjugate wherein VHH is C5 (conjugate)
VHH: EVQLVESGGGVVQPGGSLKLSCVASGTDFSINFIRWYRQAPGKQREFVAGFTATGNTNYADSMKGRFTISRDNTKNAVYLQIDSLKPEDTAVYYCYMLDKWGQGTQVTVSSAAAEQKLISEEDLNGAAHHHHHHGS
biodistribution of the siSOD1m AS strand in brain and spinal cord: broad biodistribution
